Assay results from patent US20220227830A1, “QD DOSING OF GIP RECEPTOR AGONIST PEPTIDE COMPOUNDS AND USES THEREOF” (Takeda Pharmaceutical Company Limited, priority 2020, published 2022).
Starred links: 1 amine or outer side, 2 acyl side, 3 side chain; linkers in the order of their positions; H or OH if unused. Non-standard residues stand in square brackets, D forms with d. Groups on a side chain read outwards from the residue. No end group written: not given here. *: point of attachment. C15 diacid = O=C(O)CCCCCCCCCCCCCC(=O)*; γGlu = O=C(O)[C@H](CCC(=O)[*:2])N[*:1]; NMeY = CN[C@@H](Cc1ccc(O)cc1)C(=O)O; AEEA = NCCOCCOCC(=O)O; Aib = CC(C)(N)C(=O)O

T1: full-length human GIPR with an N-terminal FLAG tag (human, UniProt P48546 22-466)
T1 sequence (looked up): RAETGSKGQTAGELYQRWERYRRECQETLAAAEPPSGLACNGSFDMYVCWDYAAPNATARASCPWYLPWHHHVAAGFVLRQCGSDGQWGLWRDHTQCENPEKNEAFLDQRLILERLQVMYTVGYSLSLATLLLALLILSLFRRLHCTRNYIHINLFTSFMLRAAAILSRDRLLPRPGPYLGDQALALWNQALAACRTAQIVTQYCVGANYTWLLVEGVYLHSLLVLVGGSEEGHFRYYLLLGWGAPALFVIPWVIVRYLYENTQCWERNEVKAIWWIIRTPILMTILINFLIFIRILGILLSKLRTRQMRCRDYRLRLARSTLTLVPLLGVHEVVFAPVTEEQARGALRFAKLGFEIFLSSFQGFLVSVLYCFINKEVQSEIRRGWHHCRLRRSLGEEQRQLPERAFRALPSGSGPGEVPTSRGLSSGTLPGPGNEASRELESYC


Tests used:
human plasma proteins = experiment: plasma protein binding, ultracentrifugation of spiked plasma, LC-MS/MS
dog plasma proteins = experiment: as above
[1] = molecular target: full-length human GLP-1R with an N-terminal FLAG tag (human, UniProt P43220 24-463); experiment: cell-based or functional assay
[2] = molecular target: T1, full-length human GIPR with an …; experiment: cell-based or functional assay

| Binder | Human PPB (Fu,plasma), fraction unbound (fraction unbound) (human plasma proteins) | Dog PPB (Fu,plasma), fraction unbound (fraction unbound) (dog plasma proteins) | Human GLP1R cAMP HEK293T EC50 [1] [nM] | Human GIPR cAMP, HEK293T EC50 [2] [nM] |
| --- | --- | --- | --- | --- |
| [NMeY][Aib]EGTFISDYSIAK([γGlu-γGlu-γGlu-C15 diacid])DR[Aib]AQ[Aib]NFVNWLLAQSPSSGAPPPS-NH2 (N-terminus assumed; SMILES CC[C@H](C)[C@H](NC(=O)[C@H](CO)NC(=O)[C@H](Cc1ccc(O)cc1)NC(=O)[C@H](CC(=O)O)NC(=O)[C@H](CO)NC(=O)[C@@H](NC(=O)[C@H](Cc1ccccc1)NC(=O)[C@@H](NC(=O)CNC(=O)[C@H](CCC(=O)O)NC(=O)C(C)(C)NC(=O)[C@H](Cc1ccc(O)cc1)NC)[C@@H](C)O)[C@@H](C)CC)C(=O)N[C@@H](C)C(=O)N[C@@H](CCCCNC(=O)CC[C@H](NC(=O)CC[C@H](NC(=O)CC[C@H](NC(=O)CCCCCCCCCCCCCC(=O)O)C(=O)O)C(=O)O)C(=O)O)C(=O)N[C@@H](CC(=O)O)C(=O)N[C@@H](CCCNC(=N)N)C(=O)NC(C)(C)C(=O)N[C@@H](C)C(=O)N[C@@H](CCC(N)=O)C(=O)NC(C)(C)C(=O)N[C@@H](CC(N)=O)C(=O)N[C@@H](Cc1ccccc1)C(=O)N[C@H](C(=O)N[C@@H](CC(N)=O)C(=O)N[C@@H](Cc1c[nH]c2ccccc12)C(=O)N[C@@H](CC(C)C)C(=O)N[C@@H](CC(C)C)C(=O)N[C@@H](C)C(=O)N[C@@H](CCC(N)=O)C(=O)N[C@@H](CO)C(=O)N1CCC[C@H]1C(=O)N[C@@H](CO)C(=O)N[C@@H](CO)C(=O)NCC(=O)N[C@@H](C)C(=O)N1CCC[C@H]1C(=O)N1CCC[C@H]1C(=O)N1CCC[C@H]1C(=O)N[C@@H](CO)C(N)=O)C(C)C) [Compound 18] | 0.0588 | 0.0517 |  |  |
| [NMeY][Aib]EGTFISDYSIALDR[Aib]AQ[Aib]K([AEEA-γGlu-γGlu-γGlu-C15 diacid])FVNWLL[Aib]QK-NH2 (N-terminus assumed; SMILES CC[C@H](C)[C@H](NC(=O)[C@H](CO)NC(=O)[C@H](Cc1ccc(O)cc1)NC(=O)[C@H](CC(=O)O)NC(=O)[C@H](CO)NC(=O)[C@@H](NC(=O)[C@H](Cc1ccccc1)NC(=O)[C@@H](NC(=O)CNC(=O)[C@H](CCC(=O)O)NC(=O)C(C)(C)NC(=O)[C@H](Cc1ccc(O)cc1)NC)[C@@H](C)O)[C@@H](C)CC)C(=O)N[C@@H](C)C(=O)N[C@@H](CC(C)C)C(=O)N[C@@H](CC(=O)O)C(=O)N[C@@H](CCCNC(=N)N)C(=O)NC(C)(C)C(=O)N[C@@H](C)C(=O)N[C@@H](CCC(N)=O)C(=O)NC(C)(C)C(=O)N[C@@H](CCCCNC(=O)COCCOCCNC(=O)CC[C@H](NC(=O)CC[C@H](NC(=O)CC[C@H](NC(=O)CCCCCCCCCCCCCC(=O)O)C(=O)O)C(=O)O)C(=O)O)C(=O)N[C@@H](Cc1ccccc1)C(=O)N[C@H](C(=O)N[C@@H](CC(N)=O)C(=O)N[C@@H](Cc1c[nH]c2ccccc12)C(=O)N[C@@H](CC(C)C)C(=O)N[C@@H](CC(C)C)C(=O)NC(C)(C)C(=O)N[C@@H](CCC(N)=O)C(=O)N[C@@H](CCCCN)C(N)=O)C(C)C) [Compound 29] | 0.018 |  | 47.1 | 0.0001 |
| [NMeY][Aib]EGTFISDYSIALDR[Aib]AQ[Aib]K([AEEA-γGlu-γGlu-γGlu-C15 diacid])FVNWLLAQK-NH2 (N-terminus assumed; SMILES CC[C@H](C)[C@H](NC(=O)[C@H](CO)NC(=O)[C@H](Cc1ccc(O)cc1)NC(=O)[C@H](CC(=O)O)NC(=O)[C@H](CO)NC(=O)[C@@H](NC(=O)[C@H](Cc1ccccc1)NC(=O)[C@@H](NC(=O)CNC(=O)[C@H](CCC(=O)O)NC(=O)C(C)(C)NC(=O)[C@H](Cc1ccc(O)cc1)NC)[C@@H](C)O)[C@@H](C)CC)C(=O)N[C@@H](C)C(=O)N[C@@H](CC(C)C)C(=O)N[C@@H](CC(=O)O)C(=O)N[C@@H](CCCNC(=N)N)C(=O)NC(C)(C)C(=O)N[C@@H](C)C(=O)N[C@@H](CCC(N)=O)C(=O)NC(C)(C)C(=O)N[C@@H](CCCCNC(=O)COCCOCCNC(=O)CC[C@H](NC(=O)CC[C@H](NC(=O)CC[C@H](NC(=O)CCCCCCCCCCCCCC(=O)O)C(=O)O)C(=O)O)C(=O)O)C(=O)N[C@@H](Cc1ccccc1)C(=O)N[C@H](C(=O)N[C@@H](CC(N)=O)C(=O)N[C@@H](Cc1c[nH]c2ccccc12)C(=O)N[C@@H](CC(C)C)C(=O)N[C@@H](CC(C)C)C(=O)N[C@@H](C)C(=O)N[C@@H](CCC(N)=O)C(=O)N[C@@H](CCCCN)C(N)=O)C(C)C) [Compound 24] | 0.0512 |  |  |  |
| [NMeY][Aib]EGTFISDYSI[Aib]K([AEEA-AEEA-γGlu-γGlu-C15 diacid])DR[Aib]AQ[Aib]NFVNWLLAQRPSSGAPPPS-NH2 (N-terminus assumed; SMILES CC[C@H](C)[C@H](NC(=O)[C@H](Cc1ccccc1)NC(=O)[C@@H](NC(=O)CNC(=O)[C@H](CCC(=O)O)NC(=O)C(C)(C)NC(=O)[C@H](Cc1ccc(O)cc1)NC)[C@@H](C)O)C(=O)N[C@@H](CO)C(=O)N[C@@H](CC(=O)O)C(=O)N[C@@H](Cc1ccc(O)cc1)C(=O)N[C@@H](CO)C(=O)N[C@H](C(=O)NC(C)(C)C(=O)N[C@@H](CCCCNC(=O)COCCOCCNC(=O)COCCOCCNC(=O)CC[C@H](NC(=O)CC[C@H](NC(=O)CCCCCCCCCCCCCC(=O)O)C(=O)O)C(=O)O)C(=O)N[C@@H](CC(=O)O)C(=O)N[C@@H](CCCNC(=N)N)C(=O)NC(C)(C)C(=O)N[C@@H](C)C(=O)N[C@@H](CCC(N)=O)C(=O)NC(C)(C)C(=O)N[C@@H](CC(N)=O)C(=O)N[C@@H](Cc1ccccc1)C(=O)N[C@H](C(=O)N[C@@H](CC(N)=O)C(=O)N[C@@H](Cc1c[nH]c2ccccc12)C(=O)N[C@@H](CC(C)C)C(=O)N[C@@H](CC(C)C)C(=O)N[C@@H](C)C(=O)N[C@@H](CCC(N)=O)C(=O)N[C@@H](CCCNC(=N)N)C(=O)N1CCC[C@H]1C(=O)N[C@@H](CO)C(=O)N[C@@H](CO)C(=O)NCC(=O)N[C@@H](C)C(=O)N1CCC[C@H]1C(=O)N1CCC[C@H]1C(=O)N1CCC[C@H]1C(=O)N[C@@H](CO)C(N)=O)C(C)C)[C@@H](C)CC) [Compound 19] | 0.0321 | 0.0361 |  |  |
| [NMeY][Aib]EGTFISDYSIAK([AEEA-AEEA-γGlu-γGlu-C15 diacid])DR[Aib]AQ[Aib]NFVNWLLAQK-NH2 (N-terminus assumed; SMILES CC[C@H](C)[C@H](NC(=O)[C@H](CO)NC(=O)[C@H](Cc1ccc(O)cc1)NC(=O)[C@H](CC(=O)O)NC(=O)[C@H](CO)NC(=O)[C@@H](NC(=O)[C@H](Cc1ccccc1)NC(=O)[C@@H](NC(=O)CNC(=O)[C@H](CCC(=O)O)NC(=O)C(C)(C)NC(=O)[C@H](Cc1ccc(O)cc1)NC)[C@@H](C)O)[C@@H](C)CC)C(=O)N[C@@H](C)C(=O)N[C@@H](CCCCNC(=O)COCCOCCNC(=O)COCCOCCNC(=O)CC[C@H](NC(=O)CC[C@H](NC(=O)CCCCCCCCCCCCCC(=O)O)C(=O)O)C(=O)O)C(=O)N[C@@H](CC(=O)O)C(=O)N[C@@H](CCCNC(=N)N)C(=O)NC(C)(C)C(=O)N[C@@H](C)C(=O)N[C@@H](CCC(N)=O)C(=O)NC(C)(C)C(=O)N[C@@H](CC(N)=O)C(=O)N[C@@H](Cc1ccccc1)C(=O)N[C@H](C(=O)N[C@@H](CC(N)=O)C(=O)N[C@@H](Cc1c[nH]c2ccccc12)C(=O)N[C@@H](CC(C)C)C(=O)N[C@@H](CC(C)C)C(=O)N[C@@H](C)C(=O)N[C@@H](CCC(N)=O)C(=O)N[C@@H](CCCCN)C(N)=O)C(C)C) [Compound 22] | 0.0413 |  |  |  |
| [NMeY][Aib]EGTFISDYSIAK([Gly-Gly-Glu-Glu-Glu-C15 diacid])DR[Aib]AQ[Aib]NFVNWLLAQK-NH2 (not fully specified) [Compound 30] | 0.0407 |  |  |  |
| [NMeY][Aib]EGTFISDYSIALDR[Aib]K([AEEA-AEEA-γGlu-γGlu-C15 diacid])Q[Aib]NFVNWLLAQSPSSGAPPPS-NH2 (N-terminus assumed; SMILES CC[C@H](C)[C@H](NC(=O)[C@H](CO)NC(=O)[C@H](Cc1ccc(O)cc1)NC(=O)[C@H](CC(=O)O)NC(=O)[C@H](CO)NC(=O)[C@@H](NC(=O)[C@H](Cc1ccccc1)NC(=O)[C@@H](NC(=O)CNC(=O)[C@H](CCC(=O)O)NC(=O)C(C)(C)NC(=O)[C@H](Cc1ccc(O)cc1)NC)[C@@H](C)O)[C@@H](C)CC)C(=O)N[C@@H](C)C(=O)N[C@@H](CC(C)C)C(=O)N[C@@H](CC(=O)O)C(=O)N[C@@H](CCCNC(=N)N)C(=O)NC(C)(C)C(=O)N[C@@H](CCCCNC(=O)COCCOCCNC(=O)COCCOCCNC(=O)CC[C@H](NC(=O)CC[C@H](NC(=O)CCCCCCCCCCCCCC(=O)O)C(=O)O)C(=O)O)C(=O)N[C@@H](CCC(N)=O)C(=O)NC(C)(C)C(=O)N[C@@H](CC(N)=O)C(=O)N[C@@H](Cc1ccccc1)C(=O)N[C@H](C(=O)N[C@@H](CC(N)=O)C(=O)N[C@@H](Cc1c[nH]c2ccccc12)C(=O)N[C@@H](CC(C)C)C(=O)N[C@@H](CC(C)C)C(=O)N[C@@H](C)C(=O)N[C@@H](CCC(N)=O)C(=O)N[C@@H](CO)C(=O)N1CCC[C@H]1C(=O)N[C@@H](CO)C(=O)N[C@@H](CO)C(=O)NCC(=O)N[C@@H](C)C(=O)N1CCC[C@H]1C(=O)N1CCC[C@H]1C(=O)N1CCC[C@H]1C(=O)N[C@@H](CO)C(N)=O)C(C)C) [Compound 17] | 0.064 | 0.0675 |  |  |
